± gives the half width of the 95% confidence interval.
How the values were obtained:
[1] = folding stability dG unfold from chymotrypsin proteolysis; higher = more stable
Method in brief: (§1)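 How resistant each design was to proteolysis was captured as K50, inferred by Bayesian fitting of sequencing counts. Unfolding free energy was then derived relative to a sequence-predicted unfolded-state K50 and a shared folded-state K50, per protease or combined. Digestion used trypsin and chymotrypsin at 11 threefold-diluted concentrations plus a no-protease condition, on mini-proteins under 80 residues without cysteine in a PA-tagged cDNA display construct. Designs were kept only when AlphaFold2 dimer inter-PAE was above 15.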

[2] = folding stability dG unfold from trypsin proteolysis; higher = more stable
Method in brief: as §1

[3] = folding stability dG unfold (combined trypsin and chymotrypsin); higher = more stable
Method in brief: as §1

Sequence	folding stability dG unfold [1]	folding stability dG unfold [2]	folding stability dG unfold [3]
SAGGNKGKTIQINFMIDPEDPEMMIEKISKWLQAKGFKIESIEPRPVGNRWMYSATFRVPNGREITIWSAGG [r13_421_TrROS]	1.61 ± 0.19 kcal/mol	1.76 ± 0.039 kcal/mol	1.77 ± 0.17 kcal/mol
SAGGNLDKEFVRDIIENFGFTRIEVEEHPNRKVVTFRFENMDVVIRPDGQIEIENPGGEPVFQIEVPSAGGS [r8_147_TrROS]	1.63 ± 0.11 kcal/mol	1.31 ± 0.031 kcal/mol	1.53 ± 0.21 kcal/mol
SAGGNNIYVHIQFKPKEQKMERTPDNGKWDMEYKWEIDITIYYPKGMSPEQAERLVNELREIFPGIKSAGGS [r8_306_TrROS]	2.54 ± 0.047 kcal/mol	1.12 ± 0.072 kcal/mol	1.99 ± 0.12 kcal/mol
SAGGNPSASPVVTETELPDGSRVTTTTYPSGTTTRTVTDLVTGKKTLVTTTTTPGTGATTTTTTPVPPSAGG [r13_822_JUSTAS]	1.51 ± 0.022 kcal/mol	0.151 ± 0.019 kcal/mol	1.08 ± 0.03 kcal/mol
SAGGNSMTILFIFPENGWIIRITIKFPDGNGKIDDIDIEREPVPNGQVKYTIRMPDGMEISVEIIPLDSAGG [r13_515_TrROS]	5.57 ± 0.15 kcal/mol	3.99 ± 0.1 kcal/mol	5.52 ± 0.33 kcal/mol
SAGGNWIWRIKFPGRSIHFNWEQGNIEIWPPDGEEKTIPLPPGEPLEEFADEFAEKNGFDKVEIEPVPSAGG [r13_852_TrROS]	1.94 ± 0.24 kcal/mol	2.08 ± 0.11 kcal/mol	1.95 ± 0.21 kcal/mol
SAGGNWRIVEIPIKFPPGQDLTTIAKEIAKELLPPGEDVSINVEQRPNYMRIYIFYPEDGKPLWEIEISAGG [r13_724_TrROS]	2.81 ± 0.048 kcal/mol	1.95 ± 0.054 kcal/mol	2.58 ± 0.075 kcal/mol
SAGGNWTIEVEIEENPDGPYRITIRYRAPNGEEHKVTMWFDPDNGTFPIKLPGPLPPDQIEDIEIWPSAGGS [r16_95_TrROS]	5.04 ± 0.24 kcal/mol	3.41 ± 0.36 kcal/mol	4.91 ± 0.19 kcal/mol
SAGGPDIKIKWKIEVNPDNGMIWLTMEIEVPNPNGDFYKVRADIYIPIVNPDDGKFPIFIMLEVEPVPSAGG [r13_715_TrROS]	4.74 ± 0.25 kcal/mol	3.36 ± 0.3 kcal/mol	4.76 ± 0.2 kcal/mol
SAGGPDWKTVEVEIQVKDPEDRPEAIEEAEEWAQELAENNPGYKIKGVDVEIWPHNGWYQIRIPITVESAGG [r13_305_TrROS]	1.01 ± 0.21 kcal/mol	0.733 ± 0.1 kcal/mol	0.79 ± 0.19 kcal/mol
SAGGPDWQTIRITFWFDSPEDAEEEVRNIARTMGLPPEGIKVEITDFEPREVNGKNYYMVEAEITIPSAGGS [r16_240_TrROS]	4.274 ± 0.035 kcal/mol	2.95 ± 0.044 kcal/mol	3.93 ± 0.062 kcal/mol
SAGGPEELELTLSIDYPDLTPEQAAEEARRLLEGLGFEVKEIPVTVEPGPGKVTVRARVTVLPPEERSAGGS [r16_287_TrMRF]	1.21 ± 0.05 kcal/mol	0.859 ± 0.12 kcal/mol	1.06 ± 0.17 kcal/mol
SAGGPFDDFEPLGTIPFKVNGMEIEIQIWRMKNPGHYMVDIRNPGFGIPVMYWVPPGDIEEILDLIRSAGGS [r8_469_TrROS]	3.1 ± 0.059 kcal/mol	2.22 ± 0.078 kcal/mol	2.7 ± 0.14 kcal/mol
SAGGPFRVRISDEVIKELKKQGLKPGKKSVKITMQYPNGWVFRGTIKIPPANPKIPLKAEPVERLDDSAGGS [r16_497_TrROS]	0.386 ± 0.17 kcal/mol	0.429 ± 0.074 kcal/mol	0.482 ± 0.11 kcal/mol
SAGGPGWVTVEFWIPIEPDPNQTRDDVKEKAEEIVHEMAEYHPQFGITNVKVDVDPEEGWVKVSIVWPSAGG [r13_1011_TrROS]	1.58 ± 0.15 kcal/mol	1.47 ± 0.16 kcal/mol	1.49 ± 0.24 kcal/mol
SAGGPGYNINIDVKIYPDPNDNHFVIEVKITIMPMEPDPDDGGWKQRSRTVPQEILLPPGESAEDIFSAGGS [r8_323_TrROS]	1.86 ± 0.1 kcal/mol	3.19 ± 0.17 kcal/mol	2.62 ± 0.13 kcal/mol
SAGGPITITYDEETGVLTITITVPSLEEAEALIKALLPPGAEATRITVERNEDGSVTVTVEIRLPKGLSAGG [r13_338_TrROS_Hall]	1.49 ± 0.024 kcal/mol	2.99 ± 0.08 kcal/mol	2.31 ± 0.062 kcal/mol
SAGGPKIKIEAFPDGTVKITIELPDGVTIVIELKFDPETGTVHAKITLLPKDKPVTFEFTFKIPPDASAGGS [r16_230_TrMRF]	4.34 ± 0.11 kcal/mol	3.34 ± 0.35 kcal/mol	4.29 ± 0.41 kcal/mol
SAGGPKKRKWVTFTIDIYIPTPPGQSIEDEARKLAENLGIEITDVEVEPHPNGMVKIDVTVTIWIPYSAGGS [r8_292_TrROS]	4.37 ± 0.097 kcal/mol	2.84 ± 0.062 kcal/mol	3.91 ± 0.13 kcal/mol
SAGGPKLFVEEDPVEDGVVVVVETNADPVALLKALEKLFGRPVKDVRFERLPDGRLIAVARIPKDALSAGGS [r16_605_TrMRF]	2.676 ± 0.016 kcal/mol	2.05 ± 0.043 kcal/mol	2.47 ± 0.045 kcal/mol
SAGGPKPILILPKNGKTETIPVPESMTLEEIIEIVKKAAEKYGFEKISYDPEKKVVTVYLKGKVIVTGSAGG [r13_572_TrMRF]	2.625 ± 0.017 kcal/mol	1.25 ± 0.015 kcal/mol	2.27 ± 0.064 kcal/mol

Sequence	folding stability dG unfold [1]	folding stability dG unfold [2]	folding stability dG unfold [3]
SAGGPKTIMAMIPRDSPELRKALKWLEKAPPGEEVELKLPGKPIRITNIQPVDDWWMFSVKIPPGLKSAGGS [r16_404_TrROS]	0.462 ± 0.31 kcal/mol	1.52 ± 0.16 kcal/mol	0.885 ± 0.19 kcal/mol
SAGGPKVEIVDITVTEEEVNGKKKKTVTVKVKLENGETLTITMSEEELKKLGLSVEEIAKKLAKKLKSAGGS [r16_625_TrROS_Hall]	2.38 ± 0.044 kcal/mol	1.54 ± 0.035 kcal/mol	2.09 ± 0.15 kcal/mol
SAGGPKVIVTDPNGVKHEFENLSIPELLSSLPKNGTPILKIEIPLFNPELGGEEPLELEFIFPPELFSAGGS [r16_806_TrMRF]	-0.417 ± 0.19 kcal/mol	0.321 ± 0.017 kcal/mol	0.107 ± 0.083 kcal/mol
SAGGPKVYLTDIVTTLPDGTVVMIGEIELPDGTPLIAITTIYKDGTVKVFIYDPNGKLIAEIEIKPKPSAGG [r13_903_TrMRF]	3.09 ± 0.032 kcal/mol	2.15 ± 0.085 kcal/mol	2.78 ± 0.064 kcal/mol
SAGGPLSEEELEALRKALEAARAAGAETVTLTATLTVTRTVTLPDGSTRTETRTLTLTLTVTLPPEESAGGS [r8_203_TrROS_Hall]	4.73 ± 0.079 kcal/mol	3.74 ± 0.1 kcal/mol	4.45 ± 0.12 kcal/mol
SAGGPLVVEAKVEGDTVTIRLPNGEEFTAHPDATLFLPNGERVFFEPVSDDVVIATVVPLPEDAEFPSAGGS [r16_277_TrMRF]	-0.0303 ± 0.13 kcal/mol	0.359 ± 0.034 kcal/mol	0.212 ± 0.085 kcal/mol
SAGGPMPPGQKRTVTIDLEYNPENGGYRVRAYSPGGKPIEEFPFPRDNLEEFAEEFANKGVDYVEIEPSAGG [r13_765_TrROS]	0.528 ± 0.18 kcal/mol	-0.217 ± 0.19 kcal/mol	0.325 ± 0.16 kcal/mol
SAGGPNFIVKIRIPMRKYERENDPGGKPKWEPVEPQRVEITIIFKGPPEQAKQIREELENHGLEVEPISAGG [r13_452_TrROS]	2.44 ± 0.098 kcal/mol	1.65 ± 0.077 kcal/mol	2.05 ± 0.18 kcal/mol
SAGGPNIELEFETYRDPDGMLVIKFHIRIKFGNKPVYIFVEGVIPPDGEAQIEDAYIFDADNGEWIPISAGG [r13_932_TrROS]	4.6 ± 0.15 kcal/mol	2.9 ± 0.25 kcal/mol	4.26 ± 0.29 kcal/mol
SAGGPPNGMVPIKVPIKIRFPNGHEFKIDEAYVMPNGMVMIEMTHTDPDDKKEKFPFMIPPDNLEIVSAGGS [r16_498_TrROS]	1.59 ± 0.096 kcal/mol	2.41 ± 0.15 kcal/mol	1.86 ± 0.19 kcal/mol
SAGGPPNYRIKIEYYPPNGMITVELPFDSPDELLDEIRELPGLPVEPDNDGTIIIMFPNHMIKIDIWKSAGG [r13_143_TrROS]	2.72 ± 0.056 kcal/mol	2.18 ± 0.067 kcal/mol	2.51 ± 0.11 kcal/mol
SAGGPPPKWVKIDIFIFIYNPDNGRPIFIRITSIEIRLDENNELDVEIEFEVFDPNGKPVKYTMTFKSAGGS [r16_200_TrROS]	4.8 ± 0.11 kcal/mol	3.81 ± 0.12 kcal/mol	4.45 ± 0.24 kcal/mol
SAGGPSHPLGPVALTLDPAASTLTVTLGDEVLTLPVPPGVTATATSYPDSVTVTLTFPDGTVVTVTLPLSAG [r5_21_JUSTAS]	3.18 ± 0.034 kcal/mol	2.18 ± 0.063 kcal/mol	2.89 ± 0.056 kcal/mol
SAGGPTAPAGGPLLAPVPVVVPVPVTLTFPNLTPEQAEALAEYFRSLGAEVSYDSATGTLTVRDYRTSAGGS [r16_765_TrMRF]	3.894 ± 0.014 kcal/mol	2.28 ± 0.061 kcal/mol	3.587 ± 0.033 kcal/mol
SAGGPTLKVKIYLPEEGKVIEFTFEAKKDEAEKIAKELEKLFPGYKLEGVKIFETPDSIELLAVASPESAGG [r13_196_TrMRF]	3.65 ± 0.075 kcal/mol	3.26 ± 0.11 kcal/mol	3.52 ± 0.069 kcal/mol
SAGGPTVVLRVRDADGNLVTVTFDEETKRITVTVVRDGKTRTLTVDMTVDEAIARLRDLFPVEVELVPSAGG [r13_141_TrROS_Hall]	3.05 ± 0.014 kcal/mol	2.42 ± 0.051 kcal/mol	2.83 ± 0.041 kcal/mol
SAGGPVFLGFEEALEFIEKAFENGEDVVVVARLPDGGLVVLEASGPDLDLRVVAVIPLPPPEEDPEKYSAGG [r13_839_TrMRF]	0.268 ± 0.14 kcal/mol	1.5 ± 0.033 kcal/mol	1.03 ± 0.091 kcal/mol
SAGGPVIEVEKEYIPETGLVKVKVRDPSSDRELEIIAPSDLVDKIEKALENAPGTNSEAAVREALRDSAGGS [r8_484_TrMRF]	0.921 ± 0.032 kcal/mol	-0.935 ± 0.42 kcal/mol	0.402 ± 0.15 kcal/mol
SAGGPVIEVESLEELKKALELLKEGKEVVIRVRVRRTETLPDGRKRVEEREVVYRATVEDGKLTIEPLSAGG [r13_835_TrROS_Hall]	3.91 ± 0.13 kcal/mol	2.93 ± 0.092 kcal/mol	3.56 ± 0.12 kcal/mol
SAGGPVLVLVEVEAGFDGRPRLRRLVLPVELRPDGTVDLDAVRRAVEELLPPDWRILRIEVVPPDAPFSAGG [r13_504_TrMRF]	1.46 ± 0.045 kcal/mol	1.577 ± 0.011 kcal/mol	1.58 ± 0.047 kcal/mol
SAGGPVVEKIRELLKELGYEVEVTDVKEDYVEIKVKLPDKEITLPDGSKIERLENGELRIWIPKEDLSAGGS [r8_297_TrROS_Hall]	3.4 ± 0.088 kcal/mol	2.98 ± 0.061 kcal/mol	3.25 ± 0.083 kcal/mol
